In patent US20180236031A1:

Biological target: high-affinity TrkA receptor on the TF-1 cell surface (UniProt P04629)
Assay: cell-based or functional assay

Sequence of UniProt P04629 (P04629 33-796 limits assumed): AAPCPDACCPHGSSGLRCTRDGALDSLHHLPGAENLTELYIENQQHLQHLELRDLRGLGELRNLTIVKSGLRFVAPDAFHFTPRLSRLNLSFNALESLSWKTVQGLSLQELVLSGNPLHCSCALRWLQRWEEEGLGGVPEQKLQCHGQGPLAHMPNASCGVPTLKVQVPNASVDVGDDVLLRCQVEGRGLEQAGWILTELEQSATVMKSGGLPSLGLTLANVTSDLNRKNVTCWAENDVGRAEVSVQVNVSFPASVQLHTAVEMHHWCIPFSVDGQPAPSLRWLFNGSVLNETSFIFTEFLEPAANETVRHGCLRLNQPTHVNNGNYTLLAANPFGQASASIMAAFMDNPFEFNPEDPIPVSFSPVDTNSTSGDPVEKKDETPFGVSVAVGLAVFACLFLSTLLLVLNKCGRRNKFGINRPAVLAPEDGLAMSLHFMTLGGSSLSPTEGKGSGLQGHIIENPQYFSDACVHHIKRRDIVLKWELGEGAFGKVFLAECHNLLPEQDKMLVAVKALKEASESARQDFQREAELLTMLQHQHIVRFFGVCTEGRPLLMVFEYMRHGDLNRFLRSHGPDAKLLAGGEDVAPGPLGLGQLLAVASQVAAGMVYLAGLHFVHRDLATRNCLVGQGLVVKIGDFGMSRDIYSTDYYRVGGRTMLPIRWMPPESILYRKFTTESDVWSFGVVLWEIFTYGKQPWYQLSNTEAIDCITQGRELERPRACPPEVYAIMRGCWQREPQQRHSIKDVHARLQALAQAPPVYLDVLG

Substance: rhNGF-CTP (long-lasting recombinant human nerve growth factor; mature NGF-CTP) (ligand)
- specific activity in the TF-1 cell proliferation assay (MTT): 1.2e+06 AU mg^-1
